Measurements from article PMC2923778 (Journal of Molecular Biology, 2010).

Columns and labels:
mSPSB2(12–224) [1] = target: T1, mSPSB2(12–224) (murine, UniProt O88838 12-224); assay: ITC; 100 μM peptide titrated into 10 μM mSPSB protein; 22 °C; 20 mM Tris, 150 mM sodium chloride, 2.5 mM calcium chloride, pH 8.0; single binding site model; settings: both partners purified
T1 construct: murine SPSB2 (SSB-2), residues 12-224: lacks the first 11 residues and the C-terminal SOCS box; Uniformly 15N-labelled in one NMR experiment; also called mSPSB2ΔSB; 15N-mSPSB2(12–224); source: E. coli Origami B(DE3) pLysS, GST fusion, purified (glutathione-Sepharose, thrombin cleavage, gel filtration)
T1 sequence (looked up): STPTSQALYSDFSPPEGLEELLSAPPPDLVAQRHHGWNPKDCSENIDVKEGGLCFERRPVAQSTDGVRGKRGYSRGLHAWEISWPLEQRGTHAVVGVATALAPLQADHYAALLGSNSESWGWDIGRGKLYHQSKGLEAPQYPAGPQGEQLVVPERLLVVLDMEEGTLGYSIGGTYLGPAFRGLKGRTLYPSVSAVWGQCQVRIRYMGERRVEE

mSPSB2(12–224) [2] = target: T1, mSPSB2(12–224); assay: as above; settings: both partners purified; remark: listed apart in the source
mSPSB1ΔSB (murine) = assay: as above
mSPSB4ΔSB (murine) = assay: as above
hSPSB2(26–219) = target: T2, hSPSB2(26–219) (human, UniProt Q99619 26-219); assay: ITC; 100 μM peptide titrated into 10 μM hSPSB protein; 20 °C; 50 mM Hepes pH 7.4, 150 mM NaCl, 1 mM DTT (hSPSB1) or 0.5 mM TCEP (hSPSB2, hSPSB4); single binding site model; settings: both partners purified
T2 construct: human SPSB2 lacking the SOCS box region, residues 26-219; also called human SPSB2 SPRY domain; source: E. coli BL21(DE3)-R3-pRARE2, purified (Ni-Sepharose, size-exclusion); not shown: His6, N-terminal, kept
T2 sequence (looked up): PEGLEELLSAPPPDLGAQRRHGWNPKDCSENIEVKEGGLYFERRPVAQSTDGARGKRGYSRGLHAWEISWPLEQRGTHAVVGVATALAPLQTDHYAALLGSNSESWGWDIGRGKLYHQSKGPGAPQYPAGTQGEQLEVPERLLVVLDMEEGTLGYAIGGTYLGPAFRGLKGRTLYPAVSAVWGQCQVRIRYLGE

hSPSB1(24–233) = target: T3, hSPSB1(24–233) (human, UniProt Q96BD6 24-233); assay: as above; settings: both partners purified
T3 construct: human SPSB1 lacking the SOCS box region, residues 24-233; also called human SPSB1 SPRY domain; source: E. coli BL21(DE3)-R3-pRARE2, purified (Ni-Sepharose, TEV cleavage, size-exclusion, anion exchange); not shown: His6, N-terminal, cleaved
T3 sequence (looked up): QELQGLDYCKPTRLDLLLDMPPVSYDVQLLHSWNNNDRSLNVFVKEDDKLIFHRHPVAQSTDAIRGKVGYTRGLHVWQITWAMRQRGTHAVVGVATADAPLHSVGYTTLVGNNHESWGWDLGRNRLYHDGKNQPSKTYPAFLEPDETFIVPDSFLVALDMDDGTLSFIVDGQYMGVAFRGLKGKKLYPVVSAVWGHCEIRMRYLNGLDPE

Par-4 = target: T4, Par-4 (Homo sapiens, UniProt Q96IZ0); assay: ITC
T4 chain: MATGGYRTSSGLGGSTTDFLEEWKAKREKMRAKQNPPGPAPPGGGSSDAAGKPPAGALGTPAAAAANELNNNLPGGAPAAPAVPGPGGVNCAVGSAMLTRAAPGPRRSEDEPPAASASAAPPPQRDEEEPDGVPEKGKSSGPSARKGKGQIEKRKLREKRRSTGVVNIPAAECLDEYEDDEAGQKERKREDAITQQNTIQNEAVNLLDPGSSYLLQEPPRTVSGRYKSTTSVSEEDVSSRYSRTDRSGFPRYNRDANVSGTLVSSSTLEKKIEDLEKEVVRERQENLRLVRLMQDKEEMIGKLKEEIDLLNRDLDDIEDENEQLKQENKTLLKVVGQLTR

B1: hPar-4(64–77) (peptide)
peptide: AAANELNNNLPGGA
notes: human prostate apoptosis response protein-4 (hPar-4), residues 64-77; also called shorter wild-type hPar-4 peptide; source: synthetic peptide (GenScript Corporation)
Kd (mSPSB2(12–224) [1]): 3200 nM
Kd (mSPSB2(12–224) [2]): 3100 nM
Kd (mSPSB1ΔSB (murine)): 210 nM
Kd (mSPSB4ΔSB (murine)): 213 nM

B2: [N70A]hPar-4(64–77) (peptide)
peptide: AAANELANNLPGGA
notes: human prostate apoptosis response protein-4 (hPar-4), residues 64-77, N70A; source: synthetic peptide (GenScript Corporation)
Kd (mSPSB1ΔSB (murine)): > 50000 nM
Kd (mSPSB4ΔSB (murine)): > 50000 nM

B3: [N71A]hPar-4(64–77) (peptide)
peptide: AAANELNANLPGGA
notes: human prostate apoptosis response protein-4 (hPar-4), residues 64-77, N71A; source: synthetic peptide (GenScript Corporation)
Kd (mSPSB1ΔSB (murine)): > 50000 nM
Kd (mSPSB4ΔSB (murine)): > 50000 nM

B4: [L69I]hPar-4(64–77) (peptide)
peptide: AAANEINNNLPGGA
notes: human prostate apoptosis response protein-4 (hPar-4), residues 64-77, L69I
Kd (mSPSB2(12–224) [1]): 1600 nM
Kd (mSPSB4ΔSB (murine)): 55 nM

B5: [E68D,L69I]hPar-4(64–77) (peptide)
peptide: AAANDINNNLPGGA
notes: human prostate apoptosis response protein-4 (hPar-4), residues 64-77, E68D and L69I (DINNN motif as in VASA); also called double mutant; source: synthetic peptide (GenScript Corporation)
Kd (mSPSB2(12–224) [1]): 106 nM
Kd (mSPSB1ΔSB (murine)): 40 nM
Kd (mSPSB4ΔSB (murine)): 33 nM

B6: [E68D]hPar-4(64–77) (peptide)
peptide: AAANDLNNNLPGGA
notes: human prostate apoptosis response protein-4 (hPar-4), residues 64-77, E68D
Kd (mSPSB2(12–224) [1]): 208 nM
Kd (mSPSB4ΔSB (murine)): 47 nM

B7: [A66D]hPar-4(59–77) (peptide)
peptide: GTPAAAADNELNNNLPGGA
notes: human prostate apoptosis response protein-4 (hPar-4), residues 59-77, A66D; source: synthetic peptide (GL Biochem)
Kd (mSPSB2(12–224) [1]): 4000 nM
Kd (mSPSB4ΔSB (murine)): 255 nM

B8: VASA(184–203) (peptide)
peptide: DINNNNNIVEDVERKREFYI
notes: DEAD-box RNA helicase VASA of Drosophila, residues 184-203; also called VASA-derived peptide; source: synthetic peptide (ThermoElectron GmbH)
Kd (hSPSB2(26–219)): 147 nM
dH (hSPSB2(26–219)): -23.9 ± 0.1 kcal/mol
stoichiometry N (hSPSB2(26–219)): 0.96
dH (hSPSB1(24–233)): -20.5 ± 0.2 kcal/mol
stoichiometry N (hSPSB1(24–233)): 0.96

B9: SPSB2 (protein)
chain: MGQTALAGGSSSTPTPQALYPDLSCPEGLEELLSAPPPDLGAQRRHGWNPKDCSENIEVKEGGLYFERRPVAQSTDGARGKRGYSRGLHAWEISWPLEQRGTHAVVGVATALAPLQTDHYAALLGSNSESWGWDIGRGKLYHQSKGPGAPQYPAGTQGEQLEVPERLLVVLDMEEGTLGYAIGGTYLGPAFRGLKGRTLYPAVSAVWGQCQVRIRYLGERRAEPHSLLHLSRLCVRHNLGDTRLGQVSALPLPPAMKRYLLYQ
Kd (Par-4): 1500 nM

B10: hPar-4(67–81) (peptide)
peptide: NELNNNLPGGAPAAP
notes: human prostate apoptosis response protein-4 (hPar-4), residues 67-81; source: synthetic peptide (ThermoElectron GmbH)
Kd (hSPSB2(26–219)): 1520 nM
dH (hSPSB2(26–219)): -16.2 ± 0.1 kcal/mol
stoichiometry N (hSPSB2(26–219)): 1.18
Kd (hSPSB1(24–233)): 150 nM
dH (hSPSB1(24–233)): -13.2 ± 0.1 kcal/mol
stoichiometry N (hSPSB1(24–233)): 0.94
